First the molecules themselves.
B1: peptide HD2 (from tick evasin EVA4) / CCL17 (biotinylated, synthetic) (parent)
chain 1: EEDDYTAYAPLTCYFT
chain 2: ARGTNVGRECCLEYFKGAIPLRKLKTWYQTSEDCSRDAIVFVTVQGRAICSDPNNKRVKNAVKYLQSLERS
B2: peptide HD2 (from tick evasin EVA4) / CCL8 (biotinylated, synthetic) (parent)
chain 1: EEDDYTAYAPLTCYFT
chain 2: QPDSVSIPITCCFNVINRKIPIQRLESYTRITNIQCPKEAVIFKTKRGKEVCADPKERWVRDSMKHLDQIFQNLKP
B3: peptide HD2 (from tick evasin EVA4) / CXCL13 (biotinylated, synthetic) (parent)
chain 1: EEDDYTAYAPLTCYFT
chain 2: VLEVYYTSLRCRCVQESSVFIPRRFIDRIQILPRGNGCPRKEIIVWKKNKSIVCVDPQAEWIQRMMEVLRKRSSSTLPVPVFKRKIP
B4: peptide HD2 (from tick evasin EVA4) / CCL1 (biotinylated, synthetic) (parent)
chain 1: EEDDYTAYAPLTCYFT
chain 2: KSMQVPFSRCCFSFAEQEIPLRAILCYRNTSSICSNEGLIFKLKRGKEACALDTVGWVQRHRKMLRHCPSKRK

Variants of B1 are the subject of one test. As to conditions: with CCL17 (biotinylated, synthetic); scale: log2.
With chain 1 A9D, the enrichment was -8.33. Same read-out and setting: the value for chain 1 A9I was -10.1; that for chain 1 A9C was -10.2. On the same count and under the same terms, for chain 1 A9K the value was -6.73.

On to chain 1 A9P, for which the enrichment was -7.91. Still for that read-out and setting: the value for chain 1 Y8Q was -6.46; that for chain 1 Y8M was -8.59; that for chain 1 Y8A was -8.88. Still for that read-out and setting: the value for chain 1 Y8D was -7.65.

For the variant chain 1 Y8R, the enrichment is -8.29.

As to chain 1 Y8K, the enrichment was -6.17. Same read-out and setting: for chain 1 Y8T the value was -8.59. Regarding chain 1 Y8P, the enrichment was -7.97.

As for chain 1 Y8G, the enrichment is -8.81. Turning to chain 1 Y8N, the enrichment is -8.23.

For the variant chain 1 Y8I, the enrichment was -9.49. On the same count and under the same terms, the value for chain 1 Y8E was -6.29; that for chain 1 C13A was -10.7; that for chain 1 C13G was -10.5. The same measure, in the same setting: for chain 1 C13H the value was -8.75; for chain 1 C13W, -9.75; for chain 1 C13K, -9.23. Same read-out and setting: the value for chain 1 C13D was -9.26.

Variants of B2 are the subject of another test. As to conditions: with CCL8 (biotinylated, synthetic); scale: log2.
As to chain 1 C13P, the enrichment was -9.12. The same measure, in the same setting: for chain 1 Y8E the value was -5.7; for chain 1 Y8P, -7.38; for chain 1 Y8G, -8.23. Turning to chain 1 Y8K, the enrichment was -5.59. The same measure, in the same setting: for chain 1 Y8Q the value was -5.88; for chain 1 E2C, -9.53; for chain 1 P10H, -7.47. Still for that read-out and setting: for chain 1 P10M the value was -8.02; for chain 1 P10I, -7.96; for chain 1 P10F, -8.93. As for chain 1 P10V, the enrichment was -9.9. As for chain 1 P10K, the enrichment is -6.48. Still for that read-out and setting: the value for chain 1 Y5K was -5.12. The same measure, in the same setting: the value for chain 1 Y5R was -6.57. On the same count and under the same terms, the value for chain 1 Y5Q was -4.88. Regarding chain 1 L11P, the enrichment was -7.62. Same read-out and setting: the value for chain 1 A9P was -7.32.

The variants in a further test derive from B3. As to conditions: with CXCL13 (biotinylated, synthetic); scale: log2.
On to chain 1 P10Q, for which the enrichment is -5.17.

As for chain 1 P10C, the enrichment was -8.5. On the same count and under the same terms, for chain 1 P10T the value was -6.64; for chain 1 P10F, -8.19; for chain 1 P10R, -7.85. Still for that read-out and setting: for chain 1 P10K the value was -5.74; for chain 1 P10Y, -7.34.

In the case of chain 1 P10I, the enrichment was -7.21.

Regarding chain 1 E2R, the enrichment is -5.9. The same measure, in the same setting: for chain 1 E2K the value was -3.92; for chain 1 E2C, -8.79; for chain 1 F15H, -6.08.

In the case of chain 1 F15N, the enrichment is -5.51. The same measure, in the same setting: the value for chain 1 F15K was -5.78; that for chain 1 F15D was -7.37; that for chain 1 T12E was -6.73.

Regarding chain 1 T12G, the enrichment is -9.07. On the same count and under the same terms, for chain 1 T12K the value was -6.36; for chain 1 D3K, -4.13; for chain 1 D3R, -6.23. Same read-out and setting: for chain 1 D3C the value was -8.67; for chain 1 D3H, -5.74; for chain 1 C13W, -8.42. Still for that read-out and setting: the value for chain 1 C13K was -7.9; that for chain 1 C13G was -9.21; that for chain 1 C13M was -8.29. Consider chain 1 C13H, for which the enrichment is -7.42. In the case of chain 1 C13F, the enrichment was -7.4. Regarding chain 1 C13D, the enrichment was -7.93.

On to chain 1 C13R, for which the enrichment was -9.32. The same measure, in the same setting: for chain 1 A7C the value was -8.62.

For the variant chain 1 A9D, the enrichment was -7. Turning to chain 1 A9C, the enrichment was -8.86. Same read-out and setting: the value for chain 1 A9K was -5.4; that for chain 1 Y14K was -6.94; that for chain 1 Y14G was -9.28. Still for that read-out and setting: for chain 1 Y14I the value was -6.05; for chain 1 Y14E, -7.54.

chain 1 Y14D: the enrichment was -6.3. For the variant chain 1 Y14L, the enrichment is -9.26. Still for that read-out and setting: for chain 1 Y14A the value was -8.81; for chain 1 Y14N, -5.67.

Regarding chain 1 E1C, the enrichment is -8.53. chain 1 D4K: the enrichment is -5.65. Same read-out and setting: the value for chain 1 D4C was -8.01.

In the case of chain 1 D4T, the enrichment was -6.65. Still for that read-out and setting: the value for chain 1 D4R was -5.86; that for chain 1 L11P was -6.87; that for chain 1 L11E was -6.94. Same read-out and setting: for chain 1 L11K the value was -5.76; for chain 1 L11D, -7.86; for chain 1 L11G, -9.02. On to chain 1 L11Q, for which the enrichment is -5.03. For the variant chain 1 Y5K, the enrichment is -4.37. Same read-out and setting: for chain 1 Y5C the value was -7.94. As for chain 1 Y5R, the enrichment is -5.82. The same measure, in the same setting: for chain 1 Y5T the value was -6.44; for chain 1 Y8C, -8.46; for chain 1 Y8K, -4.84. The same measure, in the same setting: for chain 1 Y8P the value was -6.64; for chain 1 Y8R, -6.96.

In the next test the parent is B4. As to conditions: with CCL1 (biotinylated, synthetic); scale: log2.
In the case of chain 1 Y5D, the enrichment is -6.28. The same measure, in the same setting: the value for chain 1 Y5H was -6.55; that for chain 1 Y5E was -2.71; that for chain 1 Y5M was -6.87. On the same count and under the same terms, the value for chain 1 Y5T was -6.9; that for chain 1 Y5C was -8.4. Still for that read-out and setting: the value for chain 1 Y5V was -8.5; that for chain 1 Y5K was -4.83; that for chain 1 Y5S was -8.33. Turning to chain 1 Y5P, the enrichment was -5.96. On the same count and under the same terms, for chain 1 Y5Q the value was -4.59; for chain 1 Y5A, -6.3; for chain 1 Y5R, -6.28. Take chain 1 Y5G: the enrichment is -6.34. On the same count and under the same terms, the value for chain 1 Y8G was -7.94; that for chain 1 Y8H was -6.8. Still for that read-out and setting: for chain 1 Y8R the value was -7.41; for chain 1 Y8C, -8.91; for chain 1 Y8Q, -5.59. The same measure, in the same setting: for chain 1 Y8T the value was -7.71. For the variant chain 1 Y8E, the enrichment is -5.41. As for chain 1 Y8N, the enrichment was -7.36. Same read-out and setting: the value for chain 1 Y8S was -8.97; that for chain 1 Y8K was -5.3.

For chain 1 L11N, the enrichment was -7.68. The same measure, in the same setting: for chain 1 L11E the value was -7.4; for chain 1 L11P, -7.33. Same read-out and setting: for chain 1 C13K the value was -8.35; for chain 1 C13I, -7.4. In the case of chain 1 C13L, the enrichment was -10.5.

Turning to chain 1 C13H, the enrichment is -7.88. On the same count and under the same terms, the value for chain 1 Y14P was -8.08.

As for chain 1 Y14G, the enrichment was -9.73. The same measure, in the same setting: for chain 1 Y14K the value was -7.4; for chain 1 Y14N, -6.13.

In the case of chain 1 Y14E, the enrichment was -7.99. Consider chain 1 Y14D, for which the enrichment was -6.76. Still for that read-out and setting: the value for chain 1 P10H was -7.18.

In the case of chain 1 P10N, the enrichment was -7.25. The same measure, in the same setting: the value for chain 1 P10R was -8.31; that for chain 1 P10I was -7.67; that for chain 1 P10K was -6.19. Same read-out and setting: for chain 1 P10C the value was -8.95; for chain 1 P10F, -8.64.

Take chain 1 P10S: the enrichment is -8.42. Still for that read-out and setting: for chain 1 P10T the value was -7.09; for chain 1 P10Y, -7.79; for chain 1 E2K, -4.38. Same read-out and setting: the value for chain 1 E2C was -9.24; that for chain 1 D3K was -4.59. Still for that read-out and setting: the value for chain 1 D3C was -9.13; that for chain 1 D3R was -6.68. chain 1 A7C: the enrichment was -9.07. The same measure, in the same setting: the value for chain 1 E1C was -8.98; that for chain 1 D4T was -7.11; that for chain 1 D4R was -6.32. On the same count and under the same terms, for chain 1 D4C the value was -8.47; for chain 1 D4V, -9.08; for chain 1 D4Q, -5.71. On the same count and under the same terms, the value for chain 1 D4K was -6.11. As for chain 1 D4G, the enrichment was -5.45. Still for that read-out and setting: the value for chain 1 A9D was -7.46.

On to chain 1 A9C, for which the enrichment is -9.32. In the case of chain 1 A9K, the enrichment was -5.86. Consider chain 1 A9H, for which the enrichment is -7.44.

The values are drawn from publication PMC11969024, “Development of chemokine network inhibitors using combinatorial saturation mutagenesis” (Communications Biology, 2025).
